Experimental data taken from the nanobody polyreactivity screen of Harvey et al. (2022).

Assay: yeast display, Sf9 membrane polyspecificity reagent, FACS + sequencing; frameworks hold sequencing errors
Method in brief: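 After 36–48 hours of galactose induction, yeast (Saccharomyces cerevisiae BJ5465) displaying a synthetic nanobody library were stained at 4 °C for 1 hour with 10% biotinylated, detergent-solubilized Sf9 membrane reagent. Streptavidin microbeads enriched the stained cells before FACS sorting into low and high (top ~1%) gates on anti-HA and streptavidin fluorescence. Each clone's polyreactivity label reflects its gate of origin.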

## QVQLVESGGGLVQAGGSLRLSCAASGFTFRRNVMGWYRQAPGKERELVAAIRGSDGSTYYADSVKGRFTISRDNAKNTVYLQMNSLKPEDTAVYYCNVVGKGLYRKMGYWGQGTQVTVSS
  polyreactivity (PSR sort gate): high polyreactivity

## QVQLVESGGGLVQAGGSLRLSCAASGFTFRRYAMGWYRQAPGKERELVAGITGRGGSTYYADSVKGRFTISRDNSKNTVYLQMNSLKPEDTAVYYCNKPRAARGYLTGQLDYWGQGTQVTVSS
  polyreactivity (PSR sort gate): high polyreactivity

## QVQLVESGGGLVQAGGSLRLSCAASGFTFRRYAMGWYRQAPGKERVLVAAITRGSSTYYADSVKGRFTISRDNEKNTVYLQMNSLKPEDTAVYYCAAAGFWSRPSDYWGQGTQVTVSS
  polyreactivity (PSR sort gate): low polyreactivity

## QVQLVESGGGLVQAGGSLRLSCAASGFTFRRYDMGWYRQAPGKERELVATINRGGSTDYADSVKGRFTISRDNAKNTVYLQMNSLKAEDTAVYYCATRYYSSRTWSEYYYWGQGTKVTVSS
  polyreactivity (PSR sort gate): high polyreactivity

## QVQLVESGGGLVQAGGSLRLSCAASGFTFRRYTMGWYRQAPGKERELVAAISGRGGRTYYADSVKGRFTISRDNSKNTVYLQMNSLNPEDTAVYYCAADTQYWQSSKYDYWGQGTQVTVSS
  polyreactivity (PSR sort gate): high polyreactivity

## QVQLVESGGGLVQAGGSLRLSCAASGFTFRSYAMGWYRQAPGKERELVAGITWRGGRTYYADSVKGRFTISRDNAKNTVYLQMNSLKPEDTAVYYCAVRNASKNRKYYYWGQGTQVTVSS
  polyreactivity (PSR sort gate): high polyreactivity

## QVQLVESGGGLVQAGGSLRLSCAASGFTFRSYTMGWYRQAPGKERELVAAITSRGTSTYYADSVKGRFTISRDNAKNTVYLQMNSLKPEDTAVYYCADPIYNGYASWQVYYWGQGTQVTVSS
  polyreactivity (PSR sort gate): high polyreactivity

## QVQLVESGGGLVQAGGSLRLSCAASGFTFRTNAMGWYRQAPGKERELVAAISRSGGSTYYADSVKGRFTISRDNAKNTVYLQMNSLKPEDTAVYYCATVKVSHRRYDYWGQGTQVTLSS
  polyreactivity (PSR sort gate): high polyreactivity

## QVQLVESGGGLVQAGGSLRLSCAASGFTFRTYAMGWYRQAPGKEREFVAAITTSGGSTYYADSVKGRFTISRDNAKNTVYLQMNSLKPEDTAVYYCAAKKATVVYRMEYWGQGTQVTVSS
  polyreactivity (PSR sort gate): high polyreactivity

## QVQLVESGGGLVQAGGSLRLSCAASGFTFRTYAMGWYRQAPGKERELVAAISRSGGSTDYADSVKGRFTISRDTAKNTVYLQMNSLKPEHTAVYYCNAVRRAEYDYWGQGTQVTVSS
  polyreactivity (PSR sort gate): high polyreactivity

## QVQLVESGGGLVQAGGSLRLSCAASGFTFRTYAMGWYRQAPGKVRELVAAITVSGGTYYADSVKGRFTISRDNAKNTVYLQMNSLKPEDTAVYYCTAKRFRTGLDYWGQGTQVTVSS
  polyreactivity (PSR sort gate): low polyreactivity

## QVQLVESGGGLVQAGGSLRLSCAASGFTFRVYVMGWYREAPGKERELVAGITRTGRTYYADSVKGRFTISRDNAKNTVYLQMNSLKPEDTAVYYCAATRPYSHRDYYYWGQGTQVTVSS
  polyreactivity (PSR sort gate): high polyreactivity

## QVQLVESGGGLVQAGGSLRLSCAASGFTFRWYTMGWYRQAPGKEREFVAAISSSGGSTYYADSVKGRFTISRDNAKNTVYLQMKSLKPEDTAVYYCARASRGYTYEYWGQGTQVTVSS
  polyreactivity (PSR sort gate): high polyreactivity

## QVQLVESGGGLVQAGGSLRLSCAASGFTFRYNAMGWYRQAPGKERELVAAITNGGSTYADSVKGRFTISRDNAKNTVYLQMNSLKPEDTAVYYCAADYFVLTYYLWCYSPYKSFYYWGQGTQVTVSS
  polyreactivity (PSR sort gate): low polyreactivity

## QVQLVESGGGLVQAGGSLRLSCAASGFTFRYNAMGWYRQAPGKERELVAGISWTSGSTYYADSVKGRFTISRDNAKNTVYLQMNSLKPEDTAVYYCAAYYRRDAALYGYWGQGTQVTVSS
  polyreactivity (PSR sort gate): high polyreactivity

## QVQLVESGGGLVQAGGSLRLSCAASGFTFRYNAMGWYRQAPGKERELVATISWRGTSTYYADSVKGRFTISRDNAKNTVYLQMNSLKPEDTAVYYCAALGTVGYDYWGQGTQVTVSS
  polyreactivity (PSR sort gate): low polyreactivity

## QVQLVESGGGLVQAGGSLRLSCAASGFTFRYNTMGGYRQAPGKERELVAAISSSGSSTYYADSVKGRFTISRDNAKNTVYLQMNSLKPEDTAVYYCNAVHRRTRYGYWGQGTQVTVSS
  polyreactivity (PSR sort gate): high polyreactivity
